How the values were obtained:
[1] = molecular target: T1, Cynomolgus CD3 epsilon-delta (cynomolgus); assay: SPR, printed anti-His capture, 25 C (Table 33D)
T1 chain: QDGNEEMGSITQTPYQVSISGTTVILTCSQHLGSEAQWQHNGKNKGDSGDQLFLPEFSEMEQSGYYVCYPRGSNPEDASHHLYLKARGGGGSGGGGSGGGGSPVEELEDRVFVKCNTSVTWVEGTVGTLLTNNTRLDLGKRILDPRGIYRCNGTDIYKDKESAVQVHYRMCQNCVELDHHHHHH

[2] = molecular target: T1, Cynomolgus CD3 epsilon-delta; assay: SPR, CD3 captured by anti-His, 25 C
[3] = molecular target: T2, Purified human GUCY2c ECD (recombinant, construct not stated) (human, UniProt P25092 24-430); assay: direct ELISA, coated GUCY2c ECD
T2 construct: also called recombinant human GUCY2c; recombinant GUCY2c protein
T2 sequence (P25092 24-430 limits assumed): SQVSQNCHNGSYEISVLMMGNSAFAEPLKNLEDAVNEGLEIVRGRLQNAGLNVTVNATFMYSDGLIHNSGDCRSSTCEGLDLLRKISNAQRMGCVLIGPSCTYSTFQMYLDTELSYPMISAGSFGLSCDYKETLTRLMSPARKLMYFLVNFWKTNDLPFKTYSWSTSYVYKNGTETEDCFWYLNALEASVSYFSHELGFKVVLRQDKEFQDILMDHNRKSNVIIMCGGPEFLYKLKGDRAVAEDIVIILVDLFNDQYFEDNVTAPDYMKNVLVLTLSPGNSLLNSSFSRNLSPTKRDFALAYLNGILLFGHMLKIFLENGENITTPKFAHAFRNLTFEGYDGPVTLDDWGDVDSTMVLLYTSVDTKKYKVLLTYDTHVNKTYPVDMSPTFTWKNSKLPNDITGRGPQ

[4] = molecular target: T3, Human GUCY2C full length (SEQ ID NO: 224), recombinant protein (human, UniProt P25092 24-430, limits assumed); assay: SPR, anti-human IgG capture, 25 C
T3 construct: also called huGUCY2C; biotinylated human GUCY2c
T3 sequence (P25092 24-430 F281L limits assumed): as the sequence (P25092 24-430 limits assumed) above, with F258L counted along it

[5] = molecular target: T3, Human GUCY2C full length (SEQ ID NO: …); assay: SPR, GUCY2c directly immobilized, 25 C
[6] = molecular target: T4, Murine GUCY2C-ECD cleaved (mouse, UniProt Q3UWA6 20-433); assay: SPR, GUCY2c directly immobilized, 37 C
T4 sequence: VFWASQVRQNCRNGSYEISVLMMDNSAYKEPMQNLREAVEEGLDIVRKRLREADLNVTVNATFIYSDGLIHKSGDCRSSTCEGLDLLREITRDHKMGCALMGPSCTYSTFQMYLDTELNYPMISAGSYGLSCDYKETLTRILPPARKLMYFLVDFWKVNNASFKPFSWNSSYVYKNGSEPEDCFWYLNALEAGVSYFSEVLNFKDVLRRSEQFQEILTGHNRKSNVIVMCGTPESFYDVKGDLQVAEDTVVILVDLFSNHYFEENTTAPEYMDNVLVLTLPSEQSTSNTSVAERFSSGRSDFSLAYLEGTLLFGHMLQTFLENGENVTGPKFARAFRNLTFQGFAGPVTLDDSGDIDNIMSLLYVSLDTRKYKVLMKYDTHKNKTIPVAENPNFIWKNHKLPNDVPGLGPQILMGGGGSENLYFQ

[7] = molecular target: Human GUCY2c on tumor cells (T84, HT55) (human, UniProt P25092 24-1073); assay: cell-based or functional assay
Sequence of Human GUCY2c on tumor cells (T84, HT55) (P25092 24-1073 limits assumed): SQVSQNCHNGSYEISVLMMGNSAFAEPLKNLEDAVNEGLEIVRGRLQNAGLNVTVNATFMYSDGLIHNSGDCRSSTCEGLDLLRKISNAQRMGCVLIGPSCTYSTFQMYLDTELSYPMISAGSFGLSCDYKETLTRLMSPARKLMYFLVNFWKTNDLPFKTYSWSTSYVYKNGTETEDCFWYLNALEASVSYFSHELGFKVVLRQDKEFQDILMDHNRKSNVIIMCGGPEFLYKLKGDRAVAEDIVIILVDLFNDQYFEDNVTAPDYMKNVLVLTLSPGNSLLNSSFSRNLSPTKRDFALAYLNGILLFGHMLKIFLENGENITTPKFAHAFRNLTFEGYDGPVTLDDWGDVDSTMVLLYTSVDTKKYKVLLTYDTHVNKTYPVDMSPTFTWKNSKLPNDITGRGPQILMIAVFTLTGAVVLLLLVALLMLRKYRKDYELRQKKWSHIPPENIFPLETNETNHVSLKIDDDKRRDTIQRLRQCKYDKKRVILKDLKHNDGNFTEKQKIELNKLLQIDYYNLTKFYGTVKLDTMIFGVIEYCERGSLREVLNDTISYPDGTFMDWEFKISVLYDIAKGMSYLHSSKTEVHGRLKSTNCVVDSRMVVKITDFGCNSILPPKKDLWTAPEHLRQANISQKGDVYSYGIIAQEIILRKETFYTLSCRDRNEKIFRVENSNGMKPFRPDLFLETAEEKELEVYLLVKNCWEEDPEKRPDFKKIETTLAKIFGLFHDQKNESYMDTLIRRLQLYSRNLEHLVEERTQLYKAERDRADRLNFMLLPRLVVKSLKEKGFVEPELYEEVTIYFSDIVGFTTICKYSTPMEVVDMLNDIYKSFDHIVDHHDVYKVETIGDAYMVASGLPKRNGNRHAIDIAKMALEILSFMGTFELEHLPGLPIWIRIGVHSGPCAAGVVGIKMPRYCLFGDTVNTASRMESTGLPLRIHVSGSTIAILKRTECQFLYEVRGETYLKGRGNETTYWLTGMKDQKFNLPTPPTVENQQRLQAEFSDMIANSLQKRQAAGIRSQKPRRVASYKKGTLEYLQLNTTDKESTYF

[8] = molecular target: T4, Murine GUCY2C-ECD cleaved; assay: SPR, GUCY2c directly immobilized, 25 C
Human CD3 epsilon-delta [9] = molecular target: T5, Human CD3 epsilon-delta (human); assay: SPR, CD3 captured by anti-His, 25 C
T5 construct: Single-chain epsilon-linker-delta with His6; also called huCD3
T5 chain: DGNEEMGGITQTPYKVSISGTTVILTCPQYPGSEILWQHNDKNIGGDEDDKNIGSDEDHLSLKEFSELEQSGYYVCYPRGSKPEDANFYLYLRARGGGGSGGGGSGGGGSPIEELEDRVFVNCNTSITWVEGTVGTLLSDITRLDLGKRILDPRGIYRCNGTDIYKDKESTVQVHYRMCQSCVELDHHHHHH

Human GUCY2C ECD-muIgG2a = molecular target: T6, Human GUCY2C ECD-muIgG2a (human); assay: sandwich ELISA: CD3 epsilon-delta coated, GUCY2c ECD-mIgG2a Fc in solution
T6 construct: also called human GUCY2c ECD-mouse IgG2a Fc fusion protein; huGUCY2c-mIgG2a
T6 sequence (chain, as listed by the source limits assumed): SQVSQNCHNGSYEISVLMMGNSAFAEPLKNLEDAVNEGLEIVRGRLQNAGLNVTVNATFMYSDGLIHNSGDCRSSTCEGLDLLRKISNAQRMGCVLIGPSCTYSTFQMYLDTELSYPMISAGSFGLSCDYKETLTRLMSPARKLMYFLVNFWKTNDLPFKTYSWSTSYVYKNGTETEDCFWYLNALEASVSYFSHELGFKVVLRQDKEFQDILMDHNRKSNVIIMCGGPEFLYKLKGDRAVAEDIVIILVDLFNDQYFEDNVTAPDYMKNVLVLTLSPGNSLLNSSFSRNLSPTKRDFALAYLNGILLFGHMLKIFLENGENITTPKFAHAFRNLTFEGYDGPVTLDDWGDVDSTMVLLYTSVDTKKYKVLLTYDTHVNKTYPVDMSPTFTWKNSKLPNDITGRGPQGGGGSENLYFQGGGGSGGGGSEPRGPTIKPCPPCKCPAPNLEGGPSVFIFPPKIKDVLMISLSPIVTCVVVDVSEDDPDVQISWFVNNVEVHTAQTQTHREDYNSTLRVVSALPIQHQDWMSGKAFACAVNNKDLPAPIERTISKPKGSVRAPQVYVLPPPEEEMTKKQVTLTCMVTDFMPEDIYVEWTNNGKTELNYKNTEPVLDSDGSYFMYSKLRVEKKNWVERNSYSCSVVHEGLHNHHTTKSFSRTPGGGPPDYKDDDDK

[10] = molecular target: T7, Cynomolgus GUCY2C-ECD Cleaved (cynomolgus, UniProt P25092 24-430 (human entry)); assay: SPR, GUCY2c directly immobilized, 25 C
T7 construct: also called CyGUCY2C
T7 chain: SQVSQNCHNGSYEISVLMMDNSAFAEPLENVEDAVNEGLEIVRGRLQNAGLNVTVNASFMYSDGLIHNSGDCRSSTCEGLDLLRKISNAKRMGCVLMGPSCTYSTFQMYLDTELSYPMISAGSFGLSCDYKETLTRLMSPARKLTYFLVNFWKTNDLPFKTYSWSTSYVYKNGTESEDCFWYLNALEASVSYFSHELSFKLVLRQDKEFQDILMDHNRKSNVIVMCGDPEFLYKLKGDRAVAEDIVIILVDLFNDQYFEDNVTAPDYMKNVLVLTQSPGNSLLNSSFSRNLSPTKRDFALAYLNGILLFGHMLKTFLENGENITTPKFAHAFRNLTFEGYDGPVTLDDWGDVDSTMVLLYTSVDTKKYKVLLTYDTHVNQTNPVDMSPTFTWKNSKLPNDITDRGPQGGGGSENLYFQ

Human CD3 epsilon-delta [11] = molecular target: T5, Human CD3 epsilon-delta; assay: direct ELISA, coated CD3 epsilon-delta
[12] = molecular target: T3, Human GUCY2C full length (SEQ ID NO: …); assay: SPR, GUCY2c directly immobilized, 37 C
[13] = molecular target: T7, Cynomolgus GUCY2C-ECD Cleaved; assay: SPR, anti-human IgG capture, 25 C
Human CD3 epsilon-delta [14] = molecular target: T5, Human CD3 epsilon-delta; assay: SPR, anti-human IgG capture, 25 C
Human CD3 epsilon-delta [15] = molecular target: T5, Human CD3 epsilon-delta; assay: SPR, CD3 captured by anti-His, printed 25 C (Table 33C)
[16] = molecular target: T4, Murine GUCY2C-ECD cleaved; assay: SPR, anti-human IgG capture, 25 C
[17] = molecular target: T1, Cynomolgus CD3 epsilon-delta; assay: SPR, CD3 captured by anti-His, printed 25 C (Table 33F)
[18] = molecular target: T7, Cynomolgus GUCY2C-ECD Cleaved; assay: SPR, GUCY2c directly immobilized, 37 C
[19] = molecular target: T2, Purified human GUCY2c ECD (recombinant, …); assay: ELISA; column 'Direct huGUCY2C binding (nM)'
[20] = molecular target: T3, Human GUCY2C full length (SEQ ID NO: …); assay: SPR, IgG captured by anti-human Fc

B1: GUCY2C-0098 (bispecific antibody)
chain 1: DIVLTQSPASLAVSLGQRATISCRASESVDYYGTSLMQWYQQKPGQPPKLLIYAASNVESGVPARFSGSGSGTDFSLNIHPVEEDDIAMYFCQQTRKVYTFGGGTKLEIKGGGSGGGGEVQLVESGGGLVQPGGSLRLSCAASGFTFSDYYMTWVRQAPGKGLEWVAFIRNRARGYTSDHNPSVKGRFTISRDNAKNSLYLQMNSLRAEDTAVYYCARDRPSYYVLDYWGQGTTVTVSSGCPPCPAPEAAGAPSVFLFPPKPKDTLMISRTPEVTCVVVDVSHEDPEVKFNWYVDGVEVHNAKTKPREEQYNSTYRVVSVLTVLHQDWLNGKEYKCKVSNKALPAPIEKTISKAKGQPREPQVCTLPPSREEMTKNQVSLWCLVKGFYPSDIAVEWESNGQPENNYKTTPPVLDSDGSFFLYSKLTVDKSRWQQGNVFSCSVMHEALHNHYTQKSLSLSPG
chain 2: DIVMTQSPDSLAVSLGERATINCKSSQSLFNVRSRKNYLAWYQQKPGQPPKLLISWASTRESGVPDRFSGSGSGTDFTLTISSLQAEDVAVYYCKQSYDLFTFGSGTKLEIKGGGSGGGGQVQLQQPGAELVKPGASVKLSCKASGYTFTSYWMHWVKQRPGQGLEWIGEIKPSNGLTNYIEKFKNKATLTVDKSATTAYMQLSSLTAEDSAVYYCTRTITTTEGYWFFDVWGAGTTVTVSSGCPPCPAPEAAGAPSVFLFPPKPKDTLMISRTPEVTCVVVDVSHEDPEVKFNWYVDGVEVHNAKTKPREEQYNSTYRVVSVLTVLHQDWLNGKEYKCKVSNKALPAPIEKTISKAKGQPREPQVYTLPPCREEMTKNQVSLSCAVKGFYPSDIAVEWESNGQPENNYKTTPPVLDSDGSFFLVSKLTVDKSRWQQGNVFSCSVMHEALHNHYTQKSLSLSPG
notes: chimeric CD3-GUCY2c diabody-Fc, CD3-0004
Kd [1]: 3.56 nM
koff [1]: 0.00101 s⁻¹
kon [1]: 284000 M⁻¹ s⁻¹
Kd [2]: 4.94 nM
koff [2]: 0.00478 s⁻¹
kon [2]: 969000 M⁻¹ s⁻¹
EC50 [3]: 60.2 nM
Kd [4]: 4.96 nM
koff [4]: 0.000675 s⁻¹
kon [4]: 136000 M⁻¹ s⁻¹
Kd [5]: 7.19 nM
koff [5]: 0.00104 s⁻¹
kon [5]: 145000 M⁻¹ s⁻¹
Kd [6]: 103 nM
koff [6]: 0.0201 s⁻¹
kon [6]: 196000 M⁻¹ s⁻¹
T84 tumor cell EC50 (T cell cytotoxicity, E:T 10:1) [7]: 0.41 nM
Kd [8]: 20 nM
koff [8]: 0.00268 s⁻¹
kon [8]: 134000 M⁻¹ s⁻¹
Kd (Human CD3 epsilon-delta [9]): 4.75 nM
koff (Human CD3 epsilon-delta [9]): 0.00524 s⁻¹
kon (Human CD3 epsilon-delta [9]): 1.1e+06 M⁻¹ s⁻¹
EC50 (Human GUCY2C ECD-muIgG2a): 186 nM
Kd [10]: 2.8 nM
koff [10]: 0.000577 s⁻¹
kon [10]: 206000 M⁻¹ s⁻¹
EC50 (Human CD3 epsilon-delta [11]): 7.24 nM
Kd [12]: 15 nM
koff [12]: 0.00377 s⁻¹
kon [12]: 251000 M⁻¹ s⁻¹
Kd [13]: 3.93 nM
koff [13]: 0.000524 s⁻¹
kon [13]: 134000 M⁻¹ s⁻¹
Kd (Human CD3 epsilon-delta [14]): 3.26 nM
koff (Human CD3 epsilon-delta [14]): 0.000967 s⁻¹
kon (Human CD3 epsilon-delta [14]): 297000 M⁻¹ s⁻¹
Kd (Human CD3 epsilon-delta [15]): 19.9 nM
koff (Human CD3 epsilon-delta [15]): 0.0505 s⁻¹
kon (Human CD3 epsilon-delta [15]): 2.51e+06 M⁻¹ s⁻¹
Kd [16]: 107 nM
koff [16]: 0.00402 s⁻¹
kon [16]: 37500 M⁻¹ s⁻¹
Kd [17]: 19.3 nM
koff [17]: 0.0442 s⁻¹
kon [17]: 2.28e+06 M⁻¹ s⁻¹
Kd [18]: 8.52 nM
koff [18]: 0.00264 s⁻¹
kon [18]: 310000 M⁻¹ s⁻¹

B2: GUCY2C-0212 (antibody, human IgG1, V domains shown)
VH: EVQLVESGGGLVQPGGSLRLSCAASGYTFTSYWMHWVRQAPGKGLEWIGEIKPSNGLTNYIEKFKNRFTISRDNAKNSLYLQMNSLRAEDTAVYYCARTITTTEGYWFFDVWGQGTLVTVSS
VL: DIQLTQSPSSLSASVGDRVTITCRASESVDYYGTSLMQWYQQKPGKAPKLLIYAASNVESGVPSRFSGSGSGTDFTLTISSLQPEDFATYYCQQTRKVYTFGQGTKLEIK
EC50 [19]: 0.769 nM
Kd [20]: 26 nM

B3: GUCY2C-0486 (antibody, human IgG1, kappa, V domains shown)
VH: EVQLVESGGGLVQPGGSLRLSCAASGYTFTSYWMHWVRQAPGKGLEWIGEIKPSNGLTNVHEKFKNRFTISVDKAKNSAYLQMNSLRAEDTAVYYCTRTITTTEGYWFFDVWGQGTLVTVSS
VL: DIQLTQSPSSLSASVGDRVTITCRASESVDYYGSSLLQWYQQKPGKAPKLLIYAASKLASGVPSRFSGSGSGTDFTLTISSLQPEDFATYYCQQTRKAYTFGQGTKLEIKR
Kd [20]: 5.47 nM

B4: GUCY2C-0210 (antibody, human IgG1, V domains shown)
VH: EVQLVESGGGLVQPGGSLRLSCAASGYTFTSYWMHWVRQAPGKGLEWIAEIKPSNGLTNYIEKFKNRFTISRDNAKNSLYLQMNSLRAEDTAVYYCARTITTTEGYWFFDVWGQGTLVTVSS
VL: DIQLTQSPSSLSASVGDRVTITCRASESVDYYGTSLMQWYQQKPGKAPKLLIYAASNVESGVPSRFSGSGSGTDFTLTISSLQPEDFATYYCQQTRKVYTFGQGTKLEIK
EC50 [19]: 8.96 nM
Kd [20]: 85.7 nM

B5: GUCY2C-0241 (antibody, human IgG1, kappa, V domains shown)
VH: EVQLVESGGGLVQPGGSLRLSCAASGYTFTSYWMHWVRQAPGKGLEWIGEIKPSNGLTNYIEKFKNRFTISVDKAKNSAYLQMNSLRAEDTAVYYCTRTITTTEGYWFFDVWGQGTLVTVSS
VL: DIQLTQSPSSLSASVGDRVTITCRASESVDYYGTSLMQWYQQKPGKAPKLLIYAASNVESGVPSRFSGSGSGTDFTLTISSLQPEDFATYYCQQTRKVYTFGQGTKLEIKR
notes: humanized IgG1; used as scFv on phage in the binary substitution library
EC50 [19]: 0.161 nM
Kd [20]: 9.81 nM

From US20230340151A1 (Pfizer, published 2023)
